From ChEMBL document CHEMBL1135258, “Substrate spectrum of tyrocidine thioesterase probed with randomized peptide N-acetylcysteamine thioesters” (Bioorg Med Chem Lett, 2002)
Where “and” joins values, the source holds several entries; their conditions need not be identical. Equal entries are not always repeated.

Assays:
Details in all cases: Brevibacillus brevis
[1] = substrate: CC(=O)NCCSC(=O)[C@H](CC(C)C)NC(=O)[C@H](CCCN)NC(=O)[C@@H](NC(=O)[C@H](Cc1ccc(O)cc1)NC(=O)[C@H](CCC(N)=O)NC(=O)[C@H](CC(N)=O)NC(=O)[C@H](CCCCN)NC(=O)[C@H](Cc1ccccc1)NC(=O)[C@@H]1CCCN1C(=O)[C@H](N)Cc1ccccc1)C(C)C; test: (§1) Apparent kinetic constant (Km) determined for tyrocidine thioesterase amplified from Bacillus brevis (ATCC8185)
[2] = substrate: CC(=O)NCCSC(=O)[C@H](CC(C)C)NC(=O)[C@H](CCCN)NC(=O)[C@@H](NC(=O)[C@H](Cc1ccc(O)cc1)NC(=O)[C@H](CCC(N)=O)NC(=O)[C@H](CC(N)=O)NC(=O)[C@@H](NC(=O)[C@H](Cc1ccccc1)NC(=O)[C@@H]1CCCN1C(=O)[C@H](N)Cc1ccccc1)C(C)C)C(C)C; test: as §1
[3] = substrate: CSCC[C@H](NC(=O)[C@H](Cc1ccccc1)NC(=O)[C@@H]1CCCN1C(=O)[C@H](N)Cc1ccccc1)C(=O)N[C@@H](CC(N)=O)C(=O)N[C@@H](CCC(N)=O)C(=O)N[C@@H](Cc1ccc(O)cc1)C(=O)N[C@H](C(=O)N[C@@H](CCCN)C(=O)N[C@@H](CC(C)C)C(=O)SCCNC(C)=O)C(C)C; test: as §1
[4] = substrate: CC(=O)NCCSC(=O)[C@H](CC(C)C)NC(=O)[C@H](CCCN)NC(=O)[C@@H](NC(=O)[C@H](Cc1ccc(O)cc1)NC(=O)[C@H](CCC(N)=O)NC(=O)[C@H](CC(N)=O)NC(=O)[C@H](CO)NC(=O)[C@H](Cc1ccccc1)NC(=O)[C@@H]1CCCN1C(=O)[C@H](N)Cc1ccccc1)C(C)C; test: as §1
[5] = substrate: CC(=O)NCCSC(=O)[C@H](CC(C)C)NC(=O)[C@H](CCCN)NC(=O)[C@@H](NC(=O)[C@H](Cc1ccc(O)cc1)NC(=O)[C@H](CCC(N)=O)NC(=O)[C@H](CC(N)=O)NC(=O)[C@H](CC(C)C)NC(=O)[C@H](Cc1ccccc1)NC(=O)[C@@H]1CCCN1C(=O)[C@H](N)Cc1ccccc1)C(C)C; test: as §1
[6] = substrate: CC[C@H](C)[C@H](NC(=O)[C@H](Cc1ccccc1)NC(=O)[C@@H]1CCCN1C(=O)[C@H](N)Cc1ccccc1)C(=O)N[C@@H](CC(N)=O)C(=O)N[C@@H](CCC(N)=O)C(=O)N[C@@H](Cc1ccc(O)cc1)C(=O)N[C@H](C(=O)N[C@@H](CCCN)C(=O)N[C@@H](CC(C)C)C(=O)SCCNC(C)=O)C(C)C; test: as §1
[7] = substrate: CC(=O)NCCSC(=O)[C@H](CC(C)C)NC(=O)[C@H](CCCN)NC(=O)[C@@H](NC(=O)[C@H](Cc1ccc(O)cc1)NC(=O)[C@H](CCC(N)=O)NC(=O)[C@H](CC(N)=O)NC(=O)[C@H](CCC(=O)O)NC(=O)[C@H](Cc1ccccc1)NC(=O)[C@@H]1CCCN1C(=O)[C@H](N)Cc1ccccc1)C(C)C; test: as §1
[8] = substrate: CC(=O)NCCSC(=O)[C@H](CC(C)C)NC(=O)[C@H](CCCN)NC(=O)[C@@H](NC(=O)[C@H](Cc1ccc(O)cc1)NC(=O)[C@H](CCC(N)=O)NC(=O)[C@H](CC(N)=O)NC(=O)[C@H](CC(N)=O)NC(=O)[C@H](Cc1ccccc1)NC(=O)[C@@H]1CCCN1C(=O)[C@H](N)Cc1ccccc1)C(C)C; test: as §1
[9] = substrate: CC(=O)NCCSC(=O)[C@H](CC(C)C)NC(=O)[C@H](CCCN)NC(=O)[C@@H](NC(=O)[C@H](Cc1ccc(O)cc1)NC(=O)[C@H](CCC(N)=O)NC(=O)[C@@H](NC(=O)[C@@H](Cc1ccccc1)NC(=O)[C@H](Cc1ccccc1)NC(=O)[C@@H]1CCCN1C(=O)[C@H](N)Cc1ccccc1)C(C)C)C(C)C; test: as §1
[10] = substrate: CC(=O)NCCSC(=O)[C@H](CC(C)C)NC(=O)[C@H](CCCN)NC(=O)[C@@H](NC(=O)[C@H](Cc1ccc(O)cc1)NC(=O)[C@H](CCC(N)=O)NC(=O)[C@H](CC(N)=O)NC(=O)[C@H](Cc1c[nH]c2ccccc12)NC(=O)[C@H](Cc1ccccc1)NC(=O)[C@@H]1CCCN1C(=O)[C@H](N)Cc1ccccc1)C(C)C; test: as §1
[11] = substrate: CC(=O)NCCSC(=O)[C@H](CC(C)C)NC(=O)[C@H](CCCN)NC(=O)[C@@H](NC(=O)[C@H](Cc1ccc(O)cc1)NC(=O)[C@H](CCC(N)=O)NC(=O)[C@H](CC(N)=O)NC(=O)[C@@H]1CCCN1C(=O)[C@H](Cc1ccccc1)NC(=O)[C@@H]1CCCN1C(=O)[C@H](N)Cc1ccccc1)C(C)C; test: as §1
[12] = substrate: CC(=O)NCCSC(=O)[C@H](CC(C)C)NC(=O)[C@H](CCCN)NC(=O)[C@@H](NC(=O)[C@H](Cc1ccc(O)cc1)NC(=O)[C@H](CCC(N)=O)NC(=O)[C@H](CC(N)=O)NC(=O)[C@@H](Cc1ccccc1)NC(=O)[C@H](Cc1ccccc1)NC(=O)[C@@H]1CCCN1C(=O)[C@H](N)Cc1ccccc1)C(C)C; test: as §1
[13] = substrate: CC(=O)NCCSC(=O)[C@H](CC(C)C)NC(=O)[C@H](CCCN)NC(=O)[C@@H](NC(=O)[C@H](Cc1ccc(O)cc1)NC(=O)[C@H](CCC(N)=O)NC(=O)[C@H](CC(N)=O)NC(=O)[C@H](Cc1ccccc1)NC(=O)[C@H](Cc1ccccc1)NC(=O)[C@@H]1CCCN1C(=O)[C@H](N)Cc1ccccc1)C(C)C; test: as §1
[14] = substrate: CC[C@@H](C)[C@H](NC(=O)[C@H](CC(N)=O)NC(=O)[C@@H](Cc1ccccc1)NC(=O)[C@H](Cc1ccccc1)NC(=O)[C@@H]1CCCN1C(=O)[C@H](N)Cc1ccccc1)C(=O)N[C@@H](Cc1ccc(O)cc1)C(=O)N[C@H](C(=O)N[C@@H](CCCN)C(=O)N[C@@H](CC(C)C)C(=O)SCCNC(C)=O)C(C)C; test: as §1
[15] = substrate: CC(=O)NCCSC(=O)[C@H](CC(C)C)NC(=O)[C@H](CCCN)NC(=O)[C@@H](NC(=O)[C@H](Cc1ccc(O)cc1)NC(=O)[C@H](CC(C)C)NC(=O)[C@H](CC(N)=O)NC(=O)[C@@H](Cc1ccccc1)NC(=O)[C@H](Cc1ccccc1)NC(=O)[C@@H]1CCCN1C(=O)[C@H](N)Cc1ccccc1)C(C)C; test: as §1

B1: Thioesterase GrsT homolog tycF (Brevibacillus brevis), O30412 (protein)
chain: MKLFCFPYAGGLPGIYYSWKSRLPPTFLEIDAFEVRPHIPQPNRDVFLPTSFYELLEDVCDRITPALTETPFAFFGHSMGGLVAFELTRKLMQKGAPLPQHLFLSASRAPHAYGKLAKTYNLPHDEFVEALRKLGGTPDDVLENQELLELFLPILRADFQAVQTYEMNPDLPRQVPVNMTVLYGTEDTIALEDIWAWRDYCQGACQFFPVSGGHFFIHHQTSPILEIIQNVLKEEKTVAIHSSF
B1 was tested. Which Km [1] did it give?
The Km was 15 µM.

And the Km [2]?
Its Km is 145 µM.

And the Km [3]?
The Km was 20 µM.

What about the Km [4] of the same protein?
Its Km is 14 µM.

And the Km [5]?
The Km was 29 µM.

And the Km [6]?
The Km was 32 µM.

What about the Km [7] of the same protein?
The Km was 12 µM.

And the Km [8]?
Its Km is 19 µM.

And the Km [9]?
Its Km is 25 µM.

And the Km [10]?
Its Km is 7.5 µM.

What about the Km [11] of the same protein?
The Km was 132 µM.

And the Km [12]?
Its Km is 13 µM and 9.2 µM.

What about the Km [13] of the same protein?
Its Km is 4.8 µM.

What about the Km [14] of the same protein?
Its Km is 82 µM.

What about the Km [15] of the same protein?
The Km was 135 µM.
